In paper PMC4297426:

Target: Gal4 (BD)-human NP: nucleoprotein of the contemporary human IAV H3N2 strain A/Ca/07/04 (influenza A virus H3N2, strain A/Ca/07/04 (human))
Assay: two-hybrid

Substance	β-Gal activity
ATPase, Na+/K+ transporting, beta 1 polypeptide (ATP1B1) (domain or fragment)	3.4 Miller units
Acyl-CoA thioesterase 13 (ACOT13) (from UniProt Q9NPJ3 1-140) (natural protein)	6.9 Miller units
Cytoskeleton associated protein 5 (CKAP5) (domain or fragment)	70.1 Miller units
FLJ30306 (…: Homo sapiens uncharacterized LOC101059922, mRNA) (natural protein)	1.9 Miller units
Myb/SANT-like DNA-binding domain containing 3 (MSANTD3) (domain or fragment)	13.9 Miller units
Potassium channel tetramerisation domain containing 9 (KCTD9) (domain or fragment)	5 Miller units
Proteasome (prosome, macropain) activator subunit 2 (PA28B) (from UniProt Q9UL46 1-239) (natural protein)	6.7 Miller units
Solute carrier family 30 (zinc transporter), member 9 (SLC30A9) (domain or fragment)	82.9 Miller units
Transformer 2 beta homolog (Drosophila) (TRA2B) (from UniProt P62995 1-288) (natural protein)	1.9 Miller units
phosphoribosylaminoimidazole carboxylase, phosphoribosylaminoimidazole succinocarboxamide synthetase (PAICS) (from UniProt P22234 1-425) (natural protein)	2.2 Miller units
